Paper PMC8939769, “The SARS-CoV-2 monoclonal antibody combination, AZD7442, is protective in non-human primates and has an extended half-life in humans” (Science Translational Medicine, 2022)

What was measured:
[1] = biological target: T1, SARS-CoV-2 S trimer (S2P ectodomain protein) (SARS-CoV-2, ancestral (Wuhan-Hu-1 …, UniProt P0DTC2, stabilised)); assay: cell-based or functional assay
[2] = biological target: T1, SARS-CoV-2 S trimer (S2P ectodomain …); assay: not stated; binding kinetics (ka, kd, KD) on the SARS-CoV-2 S trimer (S2P ectodomain protein); representative of at least two independent assays; assay details in the Supplementary materials; details: both partners purified

B1: AZD8895 (tixagevimab) (antibody, V domains shown)
VH: QMQLVQSGPEVKKPGTSVKVSCKASGFTFMSSAVQWVRQARGQRLEWIGWIVIGSGNTNYAQKFQERVTITRDMSTSTAYMELSSLRSEDTAVYYCAAPYCSSISCNDGFDIWGQGTMVTVSS
VL: not shown
Question: With B1 as the binder, how does the “neutralization of the USA-WA1/2020 strain of SARS-CoV-2 in vitro, IC50” value [1] read?
Answer: 9 ng/mL

Question: What about the Kd [2] of the same binder?
Answer: 2.8 pM
